Measured values from patent US20260022170A1 (ADAPTAM THERAPEUTICS S L, published 2026).

B1: ED2D5 in Fab format (Fab, V domains shown)
VH: EVQLVESGGGLVKPGGSLKLSCAASGFTFSDYYMYWVRQTPEKRLEWVATISDGGSDTYYPDNMKGRFTISRDNAKNNLYLQMSSLKSEDTAMYYCTRDPDYDDGRFAYWGQGTLVTVSA
VL: DIVMTQSHKFMSTSVGDRVSITCKASQDVGTVVAWYQQKSGQSPKLLIYWSSTRHTGVPDRFTGSGSGTDFTLTISNVQSEDLADYFCQQYIDYPLSFGAGTKLELK
notes: Tested in Fab format in BLI
B2: anti-Siglec-9 monoclonal antibody clone ED2D5 (antibody, V domains shown)
VH: B1 VH
VL: B1 VL
notes: Mouse hybridoma monoclonal antibody
B3: anti-Siglec-9 monoclonal antibody clone CB6B3 (parental mouse antibody) (antibody, V domains shown)
VH: EVQLQQSGAEVVRPGALVKLSCKAAGFNIKDYFIHWVKQRPEQGLEWIGLIDPENDNTMYDPRFQVKASLTADTSSNTAYLQLSRLTSEDAAVYYCASTVVARSFDYWGQGTTLTVSS
VL: SIVMTQTPKFLLVSAGDRVTITCKASQSVSNDVAWYQQKSGQSPKLLIYYTSNRYTGVPDRFTGSGYGTDFTFTISTVQAEDLAVYFCQQDFRSPFTFGAGTKLELK
notes: Mouse hybridoma IgG; also called moIgG CB6B3; mouse IgG CB6B3
B4: chimeric IgG1 CB6B3 (cIgG CB6B3) (antibody, V domains shown)
VH: B3 VH
VL: B3 VL
notes: Chimeric IgG1 of CB6B3 made in HEK293-6E cells; also called cIgG CB6Bb
B5: CB6B3 in Fab format (Fab, V domains shown)
VH: B3 VH
VL: B3 VL
notes: Tested in Fab format in BLI; printed as 'C1B613', read as CB6B3; also called C1B613

Columns and labels:
Siglec-3 = Siglec-3 (UniProt P20138 18-259, limits assumed); test: BLI, antibody in Fab format
Siglec-3, sequence (P20138 18-259 limits assumed): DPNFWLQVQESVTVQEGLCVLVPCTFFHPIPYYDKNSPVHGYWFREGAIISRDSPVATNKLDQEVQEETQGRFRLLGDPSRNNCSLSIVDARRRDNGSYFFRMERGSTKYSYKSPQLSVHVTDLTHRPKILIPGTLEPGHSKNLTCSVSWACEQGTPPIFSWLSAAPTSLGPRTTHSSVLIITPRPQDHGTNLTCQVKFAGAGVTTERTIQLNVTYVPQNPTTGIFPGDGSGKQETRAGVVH
Protocol: (§1) BLI experiments were performed to assess binding of the generated anti-Siglec-9 antibodies to Siglec family members Siglec-3, Siglec-6, Siglec-7, Siglec-8, Siglec-9, and Siglec-10. The antibodies were tested in Fab format at 250 nM.

Siglec-6 = Siglec-6 (UniProt O43699 27-347, limits assumed); test: BLI, antibody in Fab format
Siglec-6, sequence (O43699 27-347 limits assumed): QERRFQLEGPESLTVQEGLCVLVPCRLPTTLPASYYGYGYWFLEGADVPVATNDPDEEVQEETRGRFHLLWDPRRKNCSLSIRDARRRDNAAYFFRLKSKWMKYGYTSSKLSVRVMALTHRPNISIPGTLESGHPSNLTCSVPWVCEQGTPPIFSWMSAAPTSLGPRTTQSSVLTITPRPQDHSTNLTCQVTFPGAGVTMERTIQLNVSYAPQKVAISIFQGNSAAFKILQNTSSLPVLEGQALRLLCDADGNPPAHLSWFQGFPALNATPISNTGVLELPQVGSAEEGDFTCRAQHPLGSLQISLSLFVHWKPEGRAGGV
Protocol: as §1

Siglec-7 (BLI) = Siglec-7 (BLI) (UniProt Q9Y286 19-353, limits assumed); test: BLI, antibody in Fab format
Siglec-7 (BLI), sequence (Q9Y286 19-353 limits assumed): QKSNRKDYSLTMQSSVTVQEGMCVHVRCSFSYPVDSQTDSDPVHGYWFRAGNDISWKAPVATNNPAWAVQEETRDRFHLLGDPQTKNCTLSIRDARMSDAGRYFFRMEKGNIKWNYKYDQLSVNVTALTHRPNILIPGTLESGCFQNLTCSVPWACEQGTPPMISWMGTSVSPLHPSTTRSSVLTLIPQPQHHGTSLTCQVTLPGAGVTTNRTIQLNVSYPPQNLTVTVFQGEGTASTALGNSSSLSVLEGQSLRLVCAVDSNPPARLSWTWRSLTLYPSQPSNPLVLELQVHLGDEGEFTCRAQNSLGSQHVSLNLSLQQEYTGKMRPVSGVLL
Protocol: as §1

Siglec-8 = Siglec-8 (UniProt Q9NYZ4 17-363, limits assumed); test: BLI, antibody in Fab format
Siglec-8, sequence (Q9NYZ4 17-363 limits assumed): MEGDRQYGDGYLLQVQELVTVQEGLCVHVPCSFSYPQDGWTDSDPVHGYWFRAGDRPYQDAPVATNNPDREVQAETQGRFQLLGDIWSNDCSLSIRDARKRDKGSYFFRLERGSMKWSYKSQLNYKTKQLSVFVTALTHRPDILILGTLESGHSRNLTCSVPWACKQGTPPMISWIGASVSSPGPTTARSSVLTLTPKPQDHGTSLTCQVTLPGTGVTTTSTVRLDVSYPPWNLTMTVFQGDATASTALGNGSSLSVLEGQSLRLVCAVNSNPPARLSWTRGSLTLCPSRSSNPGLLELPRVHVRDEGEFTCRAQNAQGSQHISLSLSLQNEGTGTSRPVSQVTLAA
Protocol: as §1

Siglec-10 = target: T1, Siglec-10 (UniProt Q96LC7 17-546, limits assumed); test: BLI, antibody in Fab format
T1 sequence (looked up): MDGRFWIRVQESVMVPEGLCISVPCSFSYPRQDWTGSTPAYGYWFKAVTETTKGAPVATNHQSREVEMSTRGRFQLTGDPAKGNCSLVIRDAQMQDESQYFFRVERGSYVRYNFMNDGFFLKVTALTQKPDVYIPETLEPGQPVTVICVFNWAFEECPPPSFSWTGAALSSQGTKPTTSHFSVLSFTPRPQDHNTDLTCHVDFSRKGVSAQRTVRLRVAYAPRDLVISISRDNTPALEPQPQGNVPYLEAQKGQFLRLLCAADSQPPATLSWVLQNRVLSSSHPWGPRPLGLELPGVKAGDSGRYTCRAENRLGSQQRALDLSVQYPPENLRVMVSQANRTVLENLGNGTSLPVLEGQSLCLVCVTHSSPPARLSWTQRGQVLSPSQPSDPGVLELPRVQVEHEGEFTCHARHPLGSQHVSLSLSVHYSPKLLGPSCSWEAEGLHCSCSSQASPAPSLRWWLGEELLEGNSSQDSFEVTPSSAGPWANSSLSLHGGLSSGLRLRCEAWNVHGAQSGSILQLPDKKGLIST
Protocol: as §1

[1] = target: T2, human Siglec-9 protein (recombinant; construct not stated) (human, UniProt Q9Y336 18-344, limits assumed); test: BLI, antibody in Fab format at 250 nM
T2 construct: also called recombinant Siglec-9
T2 sequence (Q9Y336 18-344 limits assumed): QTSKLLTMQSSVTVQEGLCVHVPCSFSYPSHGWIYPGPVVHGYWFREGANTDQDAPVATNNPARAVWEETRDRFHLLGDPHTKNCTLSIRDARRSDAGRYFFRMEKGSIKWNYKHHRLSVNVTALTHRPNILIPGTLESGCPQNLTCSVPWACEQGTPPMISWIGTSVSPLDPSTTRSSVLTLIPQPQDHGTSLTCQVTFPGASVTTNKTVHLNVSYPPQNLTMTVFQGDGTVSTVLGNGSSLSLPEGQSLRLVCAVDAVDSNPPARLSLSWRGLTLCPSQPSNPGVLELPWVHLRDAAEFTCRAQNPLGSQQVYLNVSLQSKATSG
Protocol: as §1

[2] = target: T3, recombinant Siglec-9 (SinoBiological, 30109-H03H) (human, UniProt Q9Y336 18-348); test: ELISA on coated ectodomains
T3 construct: also called ectodomain of Siglec-9; recombinant human Siglec-9 protein
T3 sequence (Q9Y336 18-348 limits assumed): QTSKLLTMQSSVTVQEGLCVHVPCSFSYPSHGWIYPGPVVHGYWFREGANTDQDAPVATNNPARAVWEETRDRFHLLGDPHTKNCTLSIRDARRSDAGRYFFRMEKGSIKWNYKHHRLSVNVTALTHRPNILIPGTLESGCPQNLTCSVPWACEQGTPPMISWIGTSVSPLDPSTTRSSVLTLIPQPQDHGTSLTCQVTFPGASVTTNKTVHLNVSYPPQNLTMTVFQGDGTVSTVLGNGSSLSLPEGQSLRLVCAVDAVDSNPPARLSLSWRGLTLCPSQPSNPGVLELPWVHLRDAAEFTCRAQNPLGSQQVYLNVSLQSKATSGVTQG
Protocol: (§2) Next, the binding of anti-Siglec-9 monoclonal antibodies ED2D5, C1B613, BC3G5, and DH1A11 to the ectodomains of Siglec-9, Siglec-7, and a control was assessed using ELISA. An anti-Siglec-7 antibody control and isotype control were utilized. […] Antibody clones huCB6B3, mAbA, 68D4, and Tf73 also produced similar EC50 values.
(§3) To perform the ELISA experiments, 96-well plates were coated with recombinant Siglec-9 (SinoBiological, 30109-H03H) (100 μL) at 2 μg/mL in carbonate/bicarbonate buffer pH 9.6 overnight at 4° C., and washed with 250 μL of PBST (PBS, 0.1% Tween-20). Plates were blocked with blocking buffer (3% BSA in PBS) for 1 hour at room temperature, washed, and 100 μL of serially diluted anti-Siglec-9 antibodies-test antibodies, benchmarks, or control-starting at 66.64 nM (4-fold serial dilutions in PBST with 1% w/v non-fat milk), were added for 2 hours at RT. The plates were washed and incubated at room temperature with an anti-mouse IgG HRP detection antibody (1:5000, 1-hour, Anti-mouse IgG-HRP), followed by three washes of 250 μL of PBST, and two more with 400 μL of PBS, before the addition of 100 μL of TMB (Thermo Scientific) for 2-6 minutes. The reaction was stopped with 50 μL of Stop Solution (Thermo Scientific). The OD was measured at 450 nm in a multimode plate reader (Victor Nivo, PerkinElmer). OD values were plotted against antibody concentration, and data were analyzed using GraphPad Prism software.

ectodomain of Siglec-7 = target: T4, ectodomain of Siglec-7 (UniProt Q9Y286 19-353, limits assumed); test: ELISA on coated ectodomains
T4 construct: extracellular domain
T4 sequence (Q9Y286 19-353 limits assumed): as the sequence (Q9Y286 19-353 limits assumed) above
Protocol: as §2, §3

[3] = target: T2, human Siglec-9 protein (recombinant; …); test: ELISA on recombinant Siglec-9
Protocol: as §2
as §3, with “The reaction was stopped with 50 μL of Stop Solution (Thermo Scientific).” left out

[4] = target: T2, human Siglec-9 protein (recombinant; …); test: ELISA, human Siglec-9 protein coated at 2 µg/mL, antibody titrated 0.4 pM to 400 nM
Protocol: The binding of the different IgG CB6B3 antibodies was analyzed via ELISA using human Siglec-9 protein as immobilized antigen (2 μg/mL). The different antibodies were titrated from 0.4 pM to 400 nM (FIG. 9). Human Siglec-9 protein was diluted in PBS pH 7.4 and coated overnight at 4° C. Remaining binding sites were blocked with PBS, 2% skimmed milk power (MPBS) for 2 hours. Bound murine IgG CB6B3 antibody was detected with an HRP-conjugated anti-mouse Fc secondary antibody (Sigma Aldrich A554; 1:5,000 dilution). All antibodies were diluted in MPBS. Incubation times were 1 hour each. TMB/H2O2 was used as substrate. […] Thus, the humanised antibodies retained antigen specificity and bound with similar potency to purified antigen in ELISA.

Binder | binding result (Siglec-3) | binding result (Siglec-6) | binding result (Siglec-7 (BLI)) | binding result (Siglec-8) | binding result (Siglec-10) | binding result [2] | binding result (ectodomain of Siglec-7) | also measured
B1 | no binding (tested: 250 nM) | no binding (tested: 250 nM) | no binding (tested: 250 nM) | no binding (tested: 250 nM) | no binding (tested: 250 nM) |  |  | binding result [1]: binds
B2 |  |  |  |  |  | binds | no binding | 
B3 |  |  |  |  |  | binds | no binding | binding result [3]: binds
B4 |  |  |  |  |  |  |  | binding result [4]: binds
B5 | no binding (tested: 250 nM) | no binding (tested: 250 nM) | no binding (tested: 250 nM) | no binding (tested: 250 nM) | no binding (tested: 250 nM) |  |  | 
